Assay results reported in the Immune Epitope Database (IEDB).

Key:
Test in all cases: IEDB peptide-MHC binding, purified MHC/competitive/radioactivity; filed as Kd, often an IC50 or EC50 that approximates it; ≥ and ≤ were set here for values at or beyond the usual limits of such assays
HLA-A*68:01 = target: HLA-A*68:01
HLA-A*33:01 = target: HLA-A*33:01
HLA-A*11:01 = target: HLA-A*11:01
HLA-A*31:01 = target: HLA-A*31:01
HLA-A*03:01 = target: HLA-A*03:01
HLA-A*02:02 = target: HLA-A*02:02
HLA-A*02:06 = target: HLA-A*02:06
HLA-A*02:03 = target: HLA-A*02:03
[1] = source organism: Vaccinia virus WR
[2] = source organism: SARS coronavirus Tor2
[3] = source organism: Mammarenavirus brazilense
[4] = source organism: Vaccinia virus Copenhagen
[5] = source organism: Lassa virus Josiah
[6] = source organism: Mammarenavirus guanaritoense

Row | Sequence | Kd (HLA-A*68:01; [1]) [nM] | Kd (HLA-A*33:01; [1]) [nM] | Kd (HLA-A*11:01; [1]) [nM] | Kd (HLA-A*31:01; [1]) [nM] | Kd (HLA-A*03:01; [1]) [nM] | Kd (HLA-A*02:02; [1]) [nM] | Kd (HLA-A*02:06; [1]) [nM] | Kd (HLA-A*02:03; [1]) [nM] | other results
1 | KSSSIDVDK | 8590 | ≥ 77700 | 161 | 17700 | 14200 | – | – | – | –
2 | DLLNVTYNIK | 1670 | 1110 | 302 | 15200 | 367 | – | – | – | –
3 | LTPIFSDLLK | 17.2 | 3900 | 2.37 | 4120 | 24.1 | – | – | – | –
4 | TTTIKPVSYK | – | – | – | – | – | – | – | – | Kd (HLA-A*68:01; [2]): 99.1 nM; Kd (HLA-A*33:01; [2]): 10600 nM; Kd (HLA-A*11:01; [2]): 20.4 nM; Kd (HLA-A*31:01; [2]): 1460 nM; Kd (HLA-A*03:01; [2]): 11.6 nM
5 | GMYYPTNDI | – | – | – | – | – | 53.1 | 1680 | 8.71 | –
6 | TISGNIYSAL | – | – | – | – | – | 9.32 | 2670 | 89.2 | –
7 | QAEPSLYGRH | – | – | – | – | – | – | – | – | Kd (HLA-A*68:01; [3]): ≥ 70100 nM; Kd (HLA-A*33:01; [3]): ≥ 70000 nM; Kd (HLA-A*11:01; [3]): ≥ 69700 nM; Kd (HLA-A*31:01; [3]): ≥ 20000 nM; Kd (HLA-A*03:01; [3]): ≥ 70000 nM
8 | QLEDSEYLFR | 90.9 | 40 | 79.1 | 182 | 376 | – | – | – | –
9 | GIVAIDLDPV | – | – | – | – | – | – | – | – | Kd (HLA-A*02:06; source organism: Dengue virus 1 Brazil/97-11/1997): 9.7 nM
10 | YVLFVKKML | – | – | – | – | – | ≥ 31100 | 2540 | 12000 | –
11 | LLPSTDVNK | 6950 | ≥ 77700 | 5540 | 17300 | 5010 | – | – | – | –
12 | AMSFDGFIR | 898 | 3150 | 327 | 71.8 | 9600 | – | – | – | –
13 | ITDDSDDYEL | – | – | – | – | – | 687 | 49.3 | 11900 | –
14 | NTFVNFNSVK | – | – | – | – | – | – | – | – | Kd (HLA-A*68:01; [4]): 39.8 nM; Kd (HLA-A*33:01; [4]): 856 nM; Kd (HLA-A*11:01; [4]): 65.9 nM; Kd (HLA-A*31:01; [4]): 1670 nM; Kd (HLA-A*03:01; [4]): 74.6 nM
15 | TCQGSDDIRK | – | – | – | – | – | – | – | – | Kd (HLA-A*68:01; [5]): 5710 nM; Kd (HLA-A*33:01; [5]): ≥ 70000 nM; Kd (HLA-A*11:01; [5]): 7000 nM; Kd (HLA-A*31:01; [5]): ≥ 49900 nM; Kd (HLA-A*03:01; [5]): ≥ 70000 nM
16 | YLRGHTESI | – | – | – | – | – | 0.206 | 90.9 | 0.176 | –
17 | EISSNDNAKI | – | – | – | – | – | 11200 | 162 | 194 | –
18 | WFSQRGGSYK | – | – | – | – | – | – | – | – | Kd (HLA-A*68:01; [2]): 142 nM; Kd (HLA-A*33:01; [2]): 114 nM; Kd (HLA-A*11:01; [2]): 152 nM; Kd (HLA-A*31:01; [2]): 178 nM; Kd (HLA-A*03:01; [2]): 190 nM
19 | IVQLPKRGV | – | – | – | – | – | 12000 | 3120 | 8750 | –

Row | Sequence | Kd (HLA-A*68:01; [1]) [nM] | Kd (HLA-A*33:01; [1]) [nM] | Kd (HLA-A*11:01; [1]) [nM] | Kd (HLA-A*31:01; [1]) [nM] | Kd (HLA-A*03:01; [1]) [nM] | Kd (HLA-A*02:02; [1]) [nM] | Kd (HLA-A*02:06; [1]) [nM] | Kd (HLA-A*02:03; [1]) [nM] | other results
20 | LLACTDPSER | 856 | 2420 | ≥ 37000 | 1260 | ≥ 70100 | – | – | – | –
21 | ACNKIKGKK | – | – | – | – | – | – | – | – | Kd (HLA-A*68:01; [6]): 1010 nM; Kd (HLA-A*33:01; [6]): 664 nM; Kd (HLA-A*11:01; [6]): 19000 nM; Kd (HLA-A*31:01; [6]): 1840 nM; Kd (HLA-A*03:01; [6]): 1390 nM
22 | AMENLKAMLY | 2790 | ≥ 70000 | 222 | ≥ 41900 | 144 | – | – | – | –
23 | NATFFIFNK | – | – | – | – | – | – | – | – | Kd (HLA-A*68:01; [2]): 19.5 nM; Kd (HLA-A*33:01; [2]): 87.3 nM; Kd (HLA-A*11:01; [2]): 87.3 nM; Kd (HLA-A*31:01; [2]): 1710 nM; Kd (HLA-A*03:01; [2]): 386 nM
24 | YTLIYRQLT | – | – | – | – | – | 6410 | 17600 | 9420 | –
25 | EVGTNFGTI | – | – | – | – | – | 5760 | 19900 | 1940 | –
26 | AQALNTLVK | – | – | – | – | – | – | – | – | Kd (HLA-A*68:01; [2]): 1630 nM; Kd (HLA-A*33:01; [2]): ≥ 28700 nM; Kd (HLA-A*11:01; [2]): 15.9 nM; Kd (HLA-A*31:01; [2]): 3640 nM; Kd (HLA-A*03:01; [2]): 247 nM
27 | SVQLSNNKY | 1250 | 13600 | 33.1 | 17500 | 2710 | – | – | – | –
28 | TLGVYDYLV | – | – | – | – | – | – | – | – | Kd (HLA-A*02:02; [2]): 0.245 nM; Kd (HLA-A*02:06; [2]): 74.8 nM; Kd (HLA-A*02:03; [2]): 936 nM
29 | NYILCYRKPH | – | – | – | – | – | – | – | – | Kd (HLA-A*68:01; [3]): ≥ 24500 nM; Kd (HLA-A*33:01; [3]): 2200 nM; Kd (HLA-A*11:01; [3]): ≥ 69700 nM; Kd (HLA-A*31:01; [3]): 11600 nM; Kd (HLA-A*03:01; [3]): 5310 nM
30 | GIAIFNNRNL | – | – | – | – | – | 5.12 | 4720 | 2040 | –
31 | GIEFADNDR | 762 | 6540 | 1740 | 7550 | 2420 | – | – | – | –
32 | TVLPHLCLDY | 701 | 6050 | 2.99 | 598 | 4.08 | – | – | – | –
33 | FQPESPARL | – | – | – | – | – | – | – | – | Kd (HLA-A*02:06; source organism: Dengue virus 4 Philippines/H241/1956): 36.9 nM
34 | VADLSARNKL | – | – | – | – | – | 1170 | ≥ 35800 | 2160 | –
35 | FQESFYEDI | – | – | – | – | – | 2280 | 185 | 4420 | –
36 | GVMYAFTTPL | – | – | – | – | – | 34.2 | 44.8 | 44.4 | –
37 | LFMEMFFDY | ≥ 70200 | ≥ 56100 | ≥ 59500 | 13000 | ≥ 37600 | – | – | – | –
38 | SMYGKAFNHA | – | – | – | – | – | 6.58 | 4.03 | 0.929 | –
